Source: patent US20220119825A1, “SCALABLE PEPTIDE-GPCR INT[…] SYSTEMS” (THE TRUSTEES OF COLUMBIA UNIVERSITY IN THE CITY OF NEW YORK, priority 2019, published 2022)

What was measured:
Assay in all cases: cell-based or functional assay
[1] = biological target: T1, Sca.Ste2, Ste2-like mating GPCR, code Sca (Saccharomyces castellii (Table 3 prints …))
T1 chain: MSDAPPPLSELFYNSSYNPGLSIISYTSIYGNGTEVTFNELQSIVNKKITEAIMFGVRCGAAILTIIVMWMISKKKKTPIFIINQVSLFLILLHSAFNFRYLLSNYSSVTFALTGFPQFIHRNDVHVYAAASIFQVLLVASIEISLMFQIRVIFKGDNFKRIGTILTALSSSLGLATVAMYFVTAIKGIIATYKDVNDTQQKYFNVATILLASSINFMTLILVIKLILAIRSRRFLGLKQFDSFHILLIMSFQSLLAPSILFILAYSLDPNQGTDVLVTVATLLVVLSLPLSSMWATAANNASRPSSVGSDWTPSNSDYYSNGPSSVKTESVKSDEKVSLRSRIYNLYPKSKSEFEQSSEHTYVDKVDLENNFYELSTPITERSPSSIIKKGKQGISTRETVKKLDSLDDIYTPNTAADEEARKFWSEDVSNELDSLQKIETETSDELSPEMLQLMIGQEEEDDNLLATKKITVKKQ

[2] = biological target: T2, Nc.Ste2, Ste2-like mating GPCR of Neurospora crassa (Neurospora crassa)
T2 chain: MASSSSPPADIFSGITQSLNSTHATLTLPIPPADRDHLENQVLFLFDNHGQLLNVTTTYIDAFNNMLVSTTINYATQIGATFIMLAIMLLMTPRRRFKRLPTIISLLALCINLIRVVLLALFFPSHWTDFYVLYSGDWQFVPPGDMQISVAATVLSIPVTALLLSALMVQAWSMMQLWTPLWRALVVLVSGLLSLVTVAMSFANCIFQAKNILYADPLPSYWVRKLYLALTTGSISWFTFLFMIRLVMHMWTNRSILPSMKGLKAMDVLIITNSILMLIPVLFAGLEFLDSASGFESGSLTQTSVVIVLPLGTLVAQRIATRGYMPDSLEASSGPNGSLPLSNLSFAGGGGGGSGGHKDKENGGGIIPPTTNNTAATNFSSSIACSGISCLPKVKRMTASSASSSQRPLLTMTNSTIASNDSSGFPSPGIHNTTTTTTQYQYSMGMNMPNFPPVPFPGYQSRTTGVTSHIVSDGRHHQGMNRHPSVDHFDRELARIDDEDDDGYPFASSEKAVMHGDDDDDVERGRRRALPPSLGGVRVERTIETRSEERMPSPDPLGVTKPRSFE

[3] = biological target: T3, So.Ste2, Ste2-like mating GPCR of Schizosaccharomyces octosporus (Schizosaccharomyces octosporus)
T3 chain: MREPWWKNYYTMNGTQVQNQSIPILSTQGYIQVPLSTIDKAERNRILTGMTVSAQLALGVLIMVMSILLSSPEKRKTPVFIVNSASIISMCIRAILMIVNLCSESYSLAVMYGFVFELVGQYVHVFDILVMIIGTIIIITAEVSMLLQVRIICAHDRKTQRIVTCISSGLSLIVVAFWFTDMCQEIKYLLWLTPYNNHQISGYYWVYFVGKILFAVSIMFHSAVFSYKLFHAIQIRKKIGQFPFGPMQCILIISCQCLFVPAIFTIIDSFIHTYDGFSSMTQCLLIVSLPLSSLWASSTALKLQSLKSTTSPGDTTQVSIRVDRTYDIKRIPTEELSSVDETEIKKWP

[4] = biological target: T4, Pd.Ste2, Ste2-like mating GPCR of Pseudogymnoascus destructans (Pseudogymnoascus destructans)
T4 chain: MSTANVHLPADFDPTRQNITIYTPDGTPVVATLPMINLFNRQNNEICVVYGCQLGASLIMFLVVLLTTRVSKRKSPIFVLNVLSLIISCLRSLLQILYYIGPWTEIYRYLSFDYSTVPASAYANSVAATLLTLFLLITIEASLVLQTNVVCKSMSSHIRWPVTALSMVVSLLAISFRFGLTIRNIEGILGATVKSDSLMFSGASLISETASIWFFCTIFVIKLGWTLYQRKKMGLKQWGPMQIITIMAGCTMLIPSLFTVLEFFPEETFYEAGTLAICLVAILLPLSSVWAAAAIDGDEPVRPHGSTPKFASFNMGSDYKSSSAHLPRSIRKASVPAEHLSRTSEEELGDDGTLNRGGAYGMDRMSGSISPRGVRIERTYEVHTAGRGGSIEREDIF

[5] = biological target: T5, Bm.Ste2, Ste2-like mating GPCR of Baudoinia compniacensis (Baudoinia compniacensis)
T5 chain: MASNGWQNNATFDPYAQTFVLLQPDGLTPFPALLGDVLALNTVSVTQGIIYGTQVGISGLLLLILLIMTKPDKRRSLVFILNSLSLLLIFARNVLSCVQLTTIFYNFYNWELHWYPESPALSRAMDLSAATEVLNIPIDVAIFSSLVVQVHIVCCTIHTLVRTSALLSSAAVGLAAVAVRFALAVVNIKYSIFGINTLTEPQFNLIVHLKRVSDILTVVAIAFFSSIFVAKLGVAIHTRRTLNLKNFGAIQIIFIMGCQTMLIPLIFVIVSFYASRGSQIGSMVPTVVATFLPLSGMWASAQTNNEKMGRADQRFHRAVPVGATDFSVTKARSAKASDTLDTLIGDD

[6] = biological target: T6, Vp1.Ste2, Ste2-like mating GPCR of Vanderwaltozyma polyspora1 (Vanderwaltozyma polyspora)
T6 chain: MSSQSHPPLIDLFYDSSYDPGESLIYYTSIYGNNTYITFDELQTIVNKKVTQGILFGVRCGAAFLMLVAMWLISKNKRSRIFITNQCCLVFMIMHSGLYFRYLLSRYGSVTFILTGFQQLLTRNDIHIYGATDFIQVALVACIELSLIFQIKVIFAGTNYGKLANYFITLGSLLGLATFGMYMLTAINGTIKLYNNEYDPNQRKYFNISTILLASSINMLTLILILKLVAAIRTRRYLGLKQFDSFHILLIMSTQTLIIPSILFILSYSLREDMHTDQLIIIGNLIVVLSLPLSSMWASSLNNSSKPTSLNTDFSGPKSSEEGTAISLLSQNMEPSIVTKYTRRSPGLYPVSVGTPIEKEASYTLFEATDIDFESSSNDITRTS

[7] = biological target: T7, Pr.Ste2, Ste2-like mating GPCR of Penicillium chrysogenum (Penicillium chrysogenum)
T7 chain: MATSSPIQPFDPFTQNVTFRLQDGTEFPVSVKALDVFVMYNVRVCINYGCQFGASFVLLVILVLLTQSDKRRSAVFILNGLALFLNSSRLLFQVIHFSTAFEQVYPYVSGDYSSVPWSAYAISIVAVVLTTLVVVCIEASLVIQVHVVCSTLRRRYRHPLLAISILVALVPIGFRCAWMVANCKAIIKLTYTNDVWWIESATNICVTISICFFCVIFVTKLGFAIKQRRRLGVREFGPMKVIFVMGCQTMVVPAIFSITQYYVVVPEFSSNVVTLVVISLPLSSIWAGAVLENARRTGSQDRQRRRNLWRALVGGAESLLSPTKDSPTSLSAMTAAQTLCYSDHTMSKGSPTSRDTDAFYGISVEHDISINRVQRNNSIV

[8] = biological target: T8, Sj.Ste2, Ste2-like mating GPCR of Schizosaccharomyces japonicus (Schizosaccharomyces japonicus)
T8 chain: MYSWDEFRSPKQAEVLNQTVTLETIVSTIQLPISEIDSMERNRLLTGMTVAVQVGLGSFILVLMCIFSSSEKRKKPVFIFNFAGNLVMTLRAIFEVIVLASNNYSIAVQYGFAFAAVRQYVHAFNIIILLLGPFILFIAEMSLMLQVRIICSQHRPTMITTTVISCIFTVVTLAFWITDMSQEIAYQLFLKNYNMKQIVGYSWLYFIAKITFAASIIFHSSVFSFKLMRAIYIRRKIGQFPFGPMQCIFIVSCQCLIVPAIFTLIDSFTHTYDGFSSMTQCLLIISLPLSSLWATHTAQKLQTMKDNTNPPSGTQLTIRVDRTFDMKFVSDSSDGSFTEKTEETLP

[9] = biological target: T9, Sp.Ste2, Ste2-like mating GPCR of Schizosaccharomyces pombe (Schizosaccharomyces pombe, UniProt Q00619 1-348)
T9 sequence: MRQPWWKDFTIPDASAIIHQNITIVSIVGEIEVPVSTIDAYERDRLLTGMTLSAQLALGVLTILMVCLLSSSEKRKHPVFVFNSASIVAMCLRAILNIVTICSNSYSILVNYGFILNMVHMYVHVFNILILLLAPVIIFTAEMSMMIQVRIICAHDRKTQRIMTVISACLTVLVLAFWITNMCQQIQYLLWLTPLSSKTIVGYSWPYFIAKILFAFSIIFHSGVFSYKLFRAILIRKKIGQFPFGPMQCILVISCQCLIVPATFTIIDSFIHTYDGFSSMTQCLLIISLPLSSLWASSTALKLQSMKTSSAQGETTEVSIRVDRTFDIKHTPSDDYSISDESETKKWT

[10] = biological target: T10, Ss.Ste2, Ste2-like mating GPCR of Scheffersomyces stipitis (Scheffersomyces stipitis)
T10 chain: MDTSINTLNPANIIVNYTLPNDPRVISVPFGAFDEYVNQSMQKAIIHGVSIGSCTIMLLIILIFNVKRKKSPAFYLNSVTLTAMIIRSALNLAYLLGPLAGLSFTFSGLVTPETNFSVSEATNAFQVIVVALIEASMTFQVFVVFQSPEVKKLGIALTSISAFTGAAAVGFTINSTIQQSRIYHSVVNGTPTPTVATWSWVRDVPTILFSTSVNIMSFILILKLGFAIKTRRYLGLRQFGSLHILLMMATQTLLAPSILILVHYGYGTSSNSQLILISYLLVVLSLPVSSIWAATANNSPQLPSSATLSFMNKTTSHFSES

NWHWLRLDPGQPLY [Sca peptide ligand #1 NWHWLRLDPGQPLY]
Bttm (FUS1p-RFP reporter) [1]: 24.3 fluorescence/A600 (not printed) | EC50 (FUS1p-RFP reporter) [1]: -8.1 log10 M (not printed) | Fold Change (FUS1p-RFP reporter) [1]: 6.4 fold | Span (FUS1p-RFP reporter) [1]: 131 fluorescence/A600 (not printed) | Top (FUS1p-RFP reporter) [1]: 155 fluorescence/A600 (not printed)

QWCRIHGQSCW [Nc peptide ligand #1 QWCRIHGQSCW]
Bttm (FUS1p-RFP reporter) [2]: 27.6 fluorescence/A600 (not printed) | EC50 (FUS1p-RFP reporter) [2]: -6.3 log10 M (not printed) | Fold Change (FUS1p-RFP reporter) [2]: 10.4 fold | Span (FUS1p-RFP reporter) [2]: 259 fluorescence/A600 (not printed) | Top (FUS1p-RFP reporter) [2]: 287 fluorescence/A600 (not printed)

TYEDFLRVYKNWWSFQNPDRPDL [So peptide ligand #1 TYEDFLRVYKNWWSFQNPDRPDL]
Bttm (FUS1p-RFP reporter) [3]: 23.7 fluorescence/A600 (not printed) | EC50 (FUS1p-RFP reporter) [3]: -7.8 log10 M (not printed) | Fold Change (FUS1p-RFP reporter) [3]: 11.1 fold | Span (FUS1p-RFP reporter) [3]: 240 fluorescence/A600 (not printed) | Top (FUS1p-RFP reporter) [3]: 263 fluorescence/A600 (not printed)

FCWRPGQPCG [Pd peptide ligand #1 FCWRPGQPCG]
Bttm (FUS1p-RFP reporter) [4]: 28.8 fluorescence/A600 (not printed) | EC50 (FUS1p-RFP reporter) [4]: -7.7 log10 M (not printed) | Fold Change (FUS1p-RFP reporter) [4]: 6.6 fold | Span (FUS1p-RFP reporter) [4]: 161 fluorescence/A600 (not printed) | Top (FUS1p-RFP reporter) [4]: 190 fluorescence/A600 (not printed)

GWIGRCGVPGSSC [Bm peptide ligand #1 GWIGRCGVPGSSC]
Bttm (FUS1p-RFP reporter) [5]: 30.3 fluorescence/A600 (not printed) | EC50 (FUS1p-RFP reporter) [5]: -6.7 log10 M (not printed) | Fold Change (FUS1p-RFP reporter) [5]: 5.2 fold | Span (FUS1p-RFP reporter) [5]: 128 fluorescence/A600 (not printed) | Top (FUS1p-RFP reporter) [5]: 159 fluorescence/A600 (not printed)

WHWLELDNGQPIY [Vp1 peptide ligand #1 WHWLELDNGQPIY]
Bttm (FUS1p-RFP reporter) [6]: 28.8 fluorescence/A600 (not printed) | EC50 (FUS1p-RFP reporter) [6]: -8.6 log10 M (not printed) | Fold Change (FUS1p-RFP reporter) [6]: 8.4 fold | Span (FUS1p-RFP reporter) [6]: 214 fluorescence/A600 (not printed) | Top (FUS1p-RFP reporter) [6]: 243 fluorescence/A600 (not printed)

WCGHIGQGC [Pr peptide ligand #1 WCGHIGQGC]
Bttm (FUS1p-RFP reporter) [7]: 27.9 fluorescence/A600 (not printed) | EC50 (FUS1p-RFP reporter) [7]: -5.8 log10 M (not printed) | Fold Change (FUS1p-RFP reporter) [7]: 7.4 fold | Span (FUS1p-RFP reporter) [7]: 179 fluorescence/A600 (not printed) | Top (FUS1p-RFP reporter) [7]: 207 fluorescence/A600 (not printed)

VSDRVKQMLSHWWNFRNPDTANL [Sj peptide ligand #1 VSDRVKQMLSHWWNFRNPDTANL]
Bttm (FUS1p-RFP reporter) [8]: 21.2 fluorescence/A600 (not printed) | EC50 (FUS1p-RFP reporter) [8]: -7.8 log10 M (not printed) | Fold Change (FUS1p-RFP reporter) [8]: 14.7 fold | Span (FUS1p-RFP reporter) [8]: 290 fluorescence/A600 (not printed) | Top (FUS1p-RFP reporter) [8]: 311 fluorescence/A600 (not printed)

TYADFLRAYQSWNTFVNPDRPNL [Sp peptide ligand #1 TYADFLRAYQSWNTFVNPDRPNL]
Bttm (FUS1p-RFP reporter) [9]: 29.6 fluorescence/A600 (not printed) | EC50 (FUS1p-RFP reporter) [9]: -6.2 log10 M (not printed) | Fold Change (FUS1p-RFP reporter) [9]: 7.6 fold | Span (FUS1p-RFP reporter) [9]: 195 fluorescence/A600 (not printed) | Top (FUS1p-RFP reporter) [9]: 224 fluorescence/A600 (not printed)

WHWTSYGVFEPG [Ss peptide ligand #1 WHWTSYGVFEPG]
Bttm (FUS1p-RFP reporter) [10]: 23 fluorescence/A600 (not printed) | EC50 (FUS1p-RFP reporter) [10]: -7.9 log10 M (not printed) | Fold Change (FUS1p-RFP reporter) [10]: 13.8 fold | Span (FUS1p-RFP reporter) [10]: 295 fluorescence/A600 (not printed) | Top (FUS1p-RFP reporter) [10]: 318 fluorescence/A600 (not printed)
